Assay results as given in the supplement of paper PMC10567573.

B1: TSN (parent)
chain: FLAAEQDIREEIRKVVQSLEQTAR

Variants of: B1
Assay: protein stability index of a GFP-peptide fusion (GPS, HEK-293T) (PSI 1-6); higher = more stable
Conditions: c terminus: a fixed tail appended
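Also: lentivirally expressed fusions sorted by FACS into six bins by GFP to DsRed ratio, PSI derived from sequencing read proportions per bin multiplied by bin number.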

| Variant | protein stability index |
| --- | --- |
| FLAAEQDIREEIRKVVHSLEQTAR | 1.98 |
| FLAAEQDIREEIRKVVMSLEQTAR | 2.6 |
| FLAAEQDIREEIRKVVTSLEQTAR | 1.84 |
| FLAAEQDIREEIRKVVLSLEQTAR | 2.42 |
| FLAAEQDIREEIRKVVRSLEQTAR | 2.02 |
| FLAAEQDIREEIRKVVGSLEQTAR | 1.92 |
| FLAAEQDIREEIRKVVVSLEQTAR | 1.87 |
| FLAAEQDIREEIRKVVESLEQTAR | 1.77 |
| FLAAEQDIREEIRKVVFSLEQTAR | 1.58 |
| FLAAEQDIREEIRKVVYSLEQTAR | 1.6 |
| FLAAEQDIREEIRKVVASLEQTAR | 2.47 |
| FLAAEQDIREEIRKVVSSLEQTAR | 2.78 |
| FLAAEQDIREEIRKVVISLEQTAR | 2.06 |
| FLAAEQDIREEIRKVVWSLEQTAR | 1.72 |
| FLAAEQDIREEIRKVVNSLEQTAR | 2.15 |
| FLAAEQDIREEIRKVVCSLEQTAR | 2.3 |
| FLAAEQDIREEIRKVVDSLEQTAR | 1.78 |
| FLAAEQDIREEIRKVVPSLEQTAR | 3.32 |
| FLAAEQDIREEIRKVVKSLEQTAR | 2.52 |
| FLAAEQDIREEIRKVVQSLEWTAR | 1.87 |
| FLAAEQDIREEIRKVVQSLECTAR | 2.01 |
| FLAAEQDIREEIRKVVQSLEETAR | 1.9 |
| FLAAEQDIREEIRKVVQSLEYTAR | 1.64 |
| FLAAEQDIREEIRKVVQSLELTAR | 1.91 |

| Variant | protein stability index |
| --- | --- |
| FLAAEQDIREEIRKVVQSLEKTAR | 1.78 |
| FLAAEQDIREEIRKVVQSLEVTAR | 1.5 |
| FLAAEQDIREEIRKVVQSLEITAR | 2.27 |
| FLAAEQDIREEIRKVVQSLETTAR | 1.92 |
| FLAAEQDIREEIRKVVQSLEFTAR | 1.81 |
| FLAAEQDIREEIRKVVQSLENTAR | 1.83 |
| FLAAEQDIREEIRKVVQSLEDTAR | 1.78 |
| FLAAEQDIREEIRKVVQSLEMTAR | 1.68 |
| FLAAEQDIREEIRKVVQSLEATAR | 2.14 |
| FLAAEQDIREEIRKVVQSLEHTAR | 1.8 |
| FLAAEQDIREEIRKVVQSLEPTAR | 2.41 |
| FLAAEQDIREEIRKVVQSLESTAR | 1.9 |
| FLAAEQDIREEIRKVVQSLERTAR | 2.15 |
| FLAAEQDIREEIRKVVQSLEGTAR | 2.08 |
| FLAAEQDIREEIRCVVQSLEQTAR | 2.07 |
| FLAAEQDIREEIRRVVQSLEQTAR | 3.3 |
| FLAAEQDIREEIRAVVQSLEQTAR | 2.08 |
| FLAAEQDIREEIRFVVQSLEQTAR | 1.48 |
| FLAAEQDIREEIRVVVQSLEQTAR | 1.83 |
| FLAAEQDIREEIRLVVQSLEQTAR | 2.13 |
| FLAAEQDIREEIRDVVQSLEQTAR | 3.41 |
| FLAAEQDIREEIRYVVQSLEQTAR | 2.3 |
| FLAAEQDIREEIRTVVQSLEQTAR | 2.25 |
| FLAAEQDIREEIRWVVQSLEQTAR | 1.77 |

| Variant | protein stability index |
| --- | --- |
| FLAAEQDIREEIRNVVQSLEQTAR | 2.52 |
| FLAAEQDIREEIRIVVQSLEQTAR | 1.39 |
| FLAAEQDIREEIRMVVQSLEQTAR | 2.24 |
| FLAAEQDIREEIRQVVQSLEQTAR | 2.05 |
| FLAAEQDIREEIRSVVQSLEQTAR | 2.07 |
| FLAAEQDIREEIRHVVQSLEQTAR | 1.98 |
| FLAAEQDIREEIREVVQSLEQTAR | 2.36 |
| FLAAEQDIREEIRPVVQSLEQTAR | 3.76 |
| FLAAEQDIREEIRGVVQSLEQTAR | 2.03 |
| FLAAEQDIREEYRKVVQSLEQTAR | 3.2 |
| FLAAEQDIREEWRKVVQSLEQTAR | 2.89 |
| FLAAEQDIREEIRKVMQSLEQTAR | 1.73 |
| FLAAEQDIREEIRKVNQSLEQTAR | 3.03 |
| FLAAEQDIREEIRKVLQSLEQTAR | 2.2 |
| FLAAEQDIREEIRKVTQSLEQTAR | 1.68 |
| FLAAEQDIREEIRKVQQSLEQTAR | 2.35 |
| FLAAEQDIREEIRKVEQSLEQTAR | 2.21 |
| FLAAEQDIREEIRKVFQSLEQTAR | 2.77 |
| FLAAEQDIREEIRKVAQSLEQTAR | 2.3 |
| FLAAEQDIREEIRKVWQSLEQTAR | 1.74 |
| FLAAEQDIREEIRKVCQSLEQTAR | 2.13 |
| FLAAEQDIREEIRKVKQSLEQTAR | 2.38 |
| FLAAEQDIREEIRKVHQSLEQTAR | 2.26 |
| FLAAEQDIREEIRKVIQSLEQTAR | 1.86 |

| Variant | protein stability index |
| --- | --- |
| FLAAEQDIREEIRKVRQSLEQTAR | 2.15 |
| FLAAEQDIREEIRKVDQSLEQTAR | 3.78 |
| FLAAEQDIREEIRKVSQSLEQTAR | 1.93 |
| FLAAEQDIREEIRKVPQSLEQTAR | 3.24 |
| FLAAEQDIREEIRKVYQSLEQTAR | 2.83 |
| FLAAEQDIREEIRKVGQSLEQTAR | 3.36 |
| FLAAEQDIREEIRKNVQSLEQTAR | 3.76 |
| FLAAEQDIREEIRKCVQSLEQTAR | 2.56 |
| FLAAEQDIREEIRKRVQSLEQTAR | 3.31 |
| FLAAEQDIREEIRKGVQSLEQTAR | 3.29 |
| FLAAEQDIREEIRKLVQSLEQTAR | 2.48 |
| FLAAEQDIREEIRKWVQSLEQTAR | 2.4 |
| FLAAEQDIREEIRKAVQSLEQTAR | 3.48 |
| FLAAEQDIREEIRKPVQSLEQTAR | 3 |
| FLAAEQDIREEIRKTVQSLEQTAR | 2.61 |
| FLAAEQDIREEIRKDVQSLEQTAR | 3.62 |
| FLAAEQDIREEIRKMVQSLEQTAR | 2.17 |
| FLAAEQDIREEIRKHVQSLEQTAR | 2.8 |
| FLAAEQDIREEIRKSVQSLEQTAR | 3.07 |
| FLAAEQDIREEIRKEVQSLEQTAR | 4.34 |
| FLAAEQDIREEIRKQVQSLEQTAR | 3.54 |
| FLAAEQDIREEIRKIVQSLEQTAR | 2.19 |
| FLAAEQDIREEIRKKVQSLEQTAR | 3.37 |
| FLAAEQDIREEIRKYVQSLEQTAR | 3.44 |

| Variant | protein stability index |
| --- | --- |
| FLAAEQDIREEIRKFVQSLEQTAR | 2.96 |
| FLAAEQDIREEIRKVVQSLRQTAR | 2.44 |
| FLAAEQDIREEIRKVVQSLMQTAR | 2.33 |
| FLAAEQDIREEIRKVVQSLFQTAR | 2.73 |
| FLAAEQDIREEIRKVVQSLPQTAR | 3.47 |
| FLAAEQDIREEIRKVVQSLVQTAR | 2.29 |
| FLAAEQDIREEIRKVVQSLTQTAR | 2.3 |
| FLAAEQDIREEIRKVVQSLIQTAR | 2.05 |
| FLAAEQDIREEIRKVVQSLHQTAR | 2.55 |
| FLAAEQDIREEIRKVVQSLQQTAR | 2.35 |
| FLAAEQDIREEIRKVVQSLKQTAR | 2.29 |
| FLAAEQDIREEIRKVVQSLWQTAR | 2.64 |
| FLAAEQDIREEIRKVVQSLYQTAR | 2.07 |
| FLAAEQDIREEIRKVVQSLCQTAR | 2.57 |
| FLAAEQDIREEIRKVVQSLLQTAR | 2.13 |
| FLAAEQDIREEIRKVVQSLAQTAR | 3.05 |
| FLAAEQDIREEIRKVVQSLDQTAR | 2.77 |
| FLAAEQDIREEIRKVVQSLGQTAR | 2.28 |
| FLAAEQDIREEIRKVVQSLNQTAR | 2.08 |
| FLAAEQDIREEIRKVVQSLSQTAR | 2.57 |
| FLAAEQDIREEIRKVVQSIEQTAR | 2.41 |
| FLAAEQDIREEIRKVVQSEEQTAR | 4.16 |
| FLAAEQDIREEIRKVVQSWEQTAR | 3.12 |
| FLAAEQDIREEIRKVVQSAEQTAR | 3.72 |

| Variant | protein stability index |
| --- | --- |
| FLAAEQDIREEIRKVVQSNEQTAR | 3.8 |
| FLAAEQDIREEIRKVVQSCEQTAR | 4.16 |
| FLAAEQDIREEIRKVVQSKEQTAR | 3.44 |
| FLAAEQDIREEIRKVVQSGEQTAR | 3.51 |
| FLAAEQDIREEIRKVVQSDEQTAR | 3.6 |
| FLAAEQDIREEIRKVVQSMEQTAR | 2.33 |
| FLAAEQDIREEIRKVVQSTEQTAR | 3.76 |
| FLAAEQDIREEIRKVVQSYEQTAR | 3.01 |
| FLAAEQDIREEIRKVVQSFEQTAR | 2.14 |
| FLAAEQDIREEIRKVVQSVEQTAR | 3.02 |
| FLAAEQDIREEIRKVVQSSEQTAR | 3.33 |
| FLAAEQDIREEIRKVVQSPEQTAR | 3.9 |
| FLAAEQDIREEIRKVVQSREQTAR | 3.38 |
| FLAAEQDIREEIRKVVQSQEQTAR | 3.39 |
| FLAAEQDIREEIRKVVQSHEQTAR | 2.96 |
| FLAAEQDIREEIRKVVQSLEQPAR | 2.16 |
| FLAAEQDIREEIRKVVQSLEQDAR | 2.5 |
| FLAAEQDIREEIRKVVQSLEQIAR | 2.61 |
| FLAAEQDIREEIRKVVQSLEQFAR | 2.42 |
| FLAAEQDIREEIRKVVQSLEQEAR | 2.48 |
| FLAAEQDIREEIRKVVQSLEQAAR | 2.38 |
| FLAAEQDIREEIRKVVQSLEQHAR | 1.67 |
| FLAAEQDIREEIRKVVQSLEQGAR | 1.24 |
| FLAAEQDIREEIRKVVQSLEQKAR | 1.95 |

| Variant | protein stability index |
| --- | --- |
| FLAAEQDIREEIRKVVQSLEQMAR | 2.57 |
| FLAAEQDIREEIRKVVQSLEQNAR | 2.36 |
| FLAAEQDIREEIRKVVQSLEQCAR | 1.84 |
| FLAAEQDIREEIRKVVQSLEQLAR | 3.07 |
| FLAAEQDIREEIRKVVQSLEQRAR | 2.99 |
| FLAAEQDIREEIRKVVQSLEQQAR | 2.1 |
| FLAAEQDIREEIVKVVQSLEQTAR | 1.66 |
| FLAAEQDIREEIGKVVQSLEQTAR | 1.94 |
| FLAAEQDIREEINKVVQSLEQTAR | 2.16 |
| FLAAEQDIREEIPKVVQSLEQTAR | 3.64 |
| FLAAEQDIREEIMKVVQSLEQTAR | 2.07 |
| FLAAEQDIREEIWKVVQSLEQTAR | 2.18 |
| FLAAEQDIREEIDKVVQSLEQTAR | 1.84 |
| FLAAEQDIREEITKVVQSLEQTAR | 2.82 |
| FLAAEQDIREEISKVVQSLEQTAR | 2.12 |
| FLAAEQDIREEIFKVVQSLEQTAR | 1.55 |
| FLAAEQDIREEIKKVVQSLEQTAR | 1.89 |
| FLAAEQDIREEIQKVVQSLEQTAR | 2.14 |
| FLAAEQDIREEICKVVQSLEQTAR | 1.94 |
| FLAAEQDIREEIAKVVQSLEQTAR | 1.94 |
| FLAAEQDIREEILKVVQSLEQTAR | 1.83 |
| FLAAEQDIREEIYKVVQSLEQTAR | 2.73 |
| FLAAEQDIREEIHKVVQSLEQTAR | 2.7 |
| FLAAEQDIREEIEKVVQSLEQTAR | 1.89 |

| Variant | protein stability index |
| --- | --- |
| FLAAEQDIREEIIKVVQSLEQTAR | 1.43 |
| FLAAEQDIREEIRKVVQRLEQTAR | 2.27 |
| FLAAEQDIREEIRKVVQWLEQTAR | 1.62 |
| FLAAEQDIREEIRKVVQDLEQTAR | 2.31 |
| FLAAEQDIREEIRKVVQALEQTAR | 1.67 |
| FLAAEQDIREEIRKVVQNLEQTAR | 2.25 |
| FLAAEQDIREEIRKVVQVLEQTAR | 2.52 |
| FLAAEQDIREEIRKVVQPLEQTAR | 2.3 |
| FLAAEQDIREEIRKVVQCLEQTAR | 2.28 |
| FLAAEQDIREEIRKVVQLLEQTAR | 2.22 |
| FLAAEQDIREEIRKVVQHLEQTAR | 1.71 |
| FLAAEQDIREEIRKVVQYLEQTAR | 1.57 |
| FLAAEQDIREEIRKVVQGLEQTAR | 1.7 |
| FLAAEQDIREEIRKVVQKLEQTAR | 2.35 |
| FLAAEQDIREEIRKVVQMLEQTAR | 2.22 |
| FLAAEQDIREEIRKVVQTLEQTAR | 2.18 |
| FLAAEQDIREEIRKVVQQLEQTAR | 2.24 |
| FLAAEQDIREEIRKVVQELEQTAR | 2.54 |
| FLAAEQDIREEIRKVVQILEQTAR | 1.92 |
| FLAAEQDIREEIRKVVQFLEQTAR | 1.39 |
